Assay [1] deals with human ferritin (human) (UniProt P02794). The experiment in a line: method not stated.
In assay [2] the target is human liver ferritin, Calbiochem (human) (UniProt P02794). As to the kind of experiment: solid-phase RIA, 90Y-labelled antibody, ferritin immobilised at 5 ug/ml on tubes.
Assay [3] shares this target. As to the kind of experiment: solid-phase RIA, 111In-labelled antibody, ferritin immobilised at 5 ug/ml on tubes.
The target in assay [4] is ferritin of fixed and permeabilized CAPAN-1 cells (human) (UniProt P02794). As to the kind of experiment: 111In-labelled antibody on fixed and permeabilized CAPAN-1 cells, Lindmo linear extrapolation.
ferritin of fixed and permeabilized CAPAN-1 cells (human), sequence (P02794 whole entry, chain 1 of 2): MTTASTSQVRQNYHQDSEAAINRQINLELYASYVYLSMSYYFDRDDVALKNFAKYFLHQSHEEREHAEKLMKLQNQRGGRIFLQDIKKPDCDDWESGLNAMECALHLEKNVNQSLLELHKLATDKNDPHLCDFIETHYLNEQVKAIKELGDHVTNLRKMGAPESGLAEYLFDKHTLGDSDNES
ferritin of fixed and permeabilized CAPAN-1 cells (human), sequence (P02792 2-175, chain 2 of 2, further chain): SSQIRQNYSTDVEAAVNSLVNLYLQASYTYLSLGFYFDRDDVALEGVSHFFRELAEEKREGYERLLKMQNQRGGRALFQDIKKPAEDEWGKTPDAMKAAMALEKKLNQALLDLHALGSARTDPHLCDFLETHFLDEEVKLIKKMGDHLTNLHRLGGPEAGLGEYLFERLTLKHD

human liver ferritin, Calbiochem (human), sequence (P02794 2-183 limits assumed, chain 1 of 2): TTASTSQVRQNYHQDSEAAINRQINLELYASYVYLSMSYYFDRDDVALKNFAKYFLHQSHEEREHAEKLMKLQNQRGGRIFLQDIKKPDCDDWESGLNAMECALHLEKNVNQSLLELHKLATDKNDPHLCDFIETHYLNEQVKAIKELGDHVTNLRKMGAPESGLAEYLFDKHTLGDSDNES
human liver ferritin, Calbiochem (human), sequence (P02792 2-175 limits assumed, chain 2 of 2, further chain): as the sequence (P02792 2-175, chain 2 of 2, further chain) above
human ferritin (human), sequence (P02794 2-183 limits assumed, chain 1 of 2): as the sequence (P02794 2-183 limits assumed, chain 1 of 2) above
human ferritin (human), sequence (P02792 2-175 limits assumed, chain 2 of 2, further chain): as the sequence (P02792 2-175, chain 2 of 2, further chain) above

B1: AMB8LK monoclonal IgG1 anti-ferritin antibody (murine, unconjugated) (antibody, from another filing, V domains shown)
VH: QVQLKESGPGLVAPSQSLSITCTVSGFSLSRYSVHWVRQPPGKGLEWLGTIWGGGSTDYNSVLKSRLSISKDNSKSQVLLKVNSLQTDDTAIYYCASGPYYYTMDYWGQGTSVTVSS
VL: QIVLTQSPAILSASLGEEITLTCSASSSVTFMHWYQQKSGTSPKLLIYTTSNLASGVPSRFSGSGSGTFYSLTISSVEAEDAADYYCHQWSSYPTFGSGTKLEIKR
Take B1: the Kd in assay [1] stood at 5.1 nM.

B2: Bz-DTPA-AMB8LK (antibody, from another filing, V domains shown)
VH: B1 VH
VL: B1 VL
For B2, the values for the percentage of bound antibody in assay [2] and in assay [3] were 100% and 87%, respectively. Further, the immunoreactive fraction in assay [4] was 52%.

B3: Bz-CHX-A"-DTPA-AMB8LK (antibody, from another filing, V domains shown)
VH: B1 VH
VL: B1 VL
Turning to B3, the percentage of bound antibody in assay [2] was 98.9%; in assay [3], 74.8%. The immunoreactive fraction in assay [4] is 43%.

B4: Bz-DOTA-AMB8LK (antibody, from another filing, V domains shown)
VH: B1 VH
VL: B1 VL
On to B4, for which the percentage of bound antibody was determined as 73.2% in assay [2] and 76.8% in assay [3]. Further, in assay [4], the immunoreactive fraction was 24%.
